Source: US20110059095A1 (Regeneron, published 2011)
Numbering of substitutions follows the chain as printed. Where no end group is shown, it is not given here. The star is where a group is joined. Biotin = O=C1N[C@H]2[C@H](CS[C@H]2CCCCC(=O)*)N1

T1: Peptide D (N-terminal domain of human PAR-2-mouse IgG2a) (Human)
T1 chain: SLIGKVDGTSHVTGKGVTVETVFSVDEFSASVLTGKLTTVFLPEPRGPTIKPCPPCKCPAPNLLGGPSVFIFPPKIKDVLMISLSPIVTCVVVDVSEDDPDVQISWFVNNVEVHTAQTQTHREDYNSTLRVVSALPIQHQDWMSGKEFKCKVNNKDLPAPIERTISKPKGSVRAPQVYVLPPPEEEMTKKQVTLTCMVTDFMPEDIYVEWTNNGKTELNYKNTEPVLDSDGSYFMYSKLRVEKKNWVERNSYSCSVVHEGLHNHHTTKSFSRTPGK

T2: Peptide A (human PAR-2), N-terminal biotinylated (Human, N-terminal biotin via G4S linker)
T2 construct: also called Peptide A N-Term
T2 peptide: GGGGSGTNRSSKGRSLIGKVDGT

T3: Peptide A (human PAR-2), unbiotinylated (Human)
T3 construct: also called Peptide A No Biotin
T3 peptide: GTNRSSKGRSLIGKVDGT

T4: Peptide B (human PAR-2), unbiotinylated (Human)
T4 construct: also called Peptide B No Biotin
T4 peptide: SLIGKVDGTSHVTG

T5: Peptide C (human PAR-2), C-terminal biotinylated (Human)
T5 construct: also called Peptide C C-Term
T5 peptide: SLIGKVGGGGS-biotin

T6: Peptide C (human PAR-2), N-terminal biotinylated (Human)
T6 construct: also called Peptide C N-Term
T6 peptide: Biotin-GGGGSSLIGKV

T7: Peptide E (mouse PAR-2), N-terminal biotinylated (Mouse (Mus musculus), N-terminal biotin via G4S linker)
T7 construct: also called Peptide E N-Term
T7 peptide: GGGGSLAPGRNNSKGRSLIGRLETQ

T8: Peptide E (mouse PAR-2), unbiotinylated (Mouse (Mus musculus))
T8 construct: also called Peptide E No Biotin
T8 peptide: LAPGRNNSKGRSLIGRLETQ

T9: Peptide G (rat PAR-2), unbiotinylated (Rat (Rattus norvegicus))
T9 construct: also called Peptide G No Biotin
T9 peptide: GPNSKGRSLIGRLDTP

T10: Peptide G (rat PAR-2), N-terminal biotinylated (Rat (Rattus norvegicus), N-terminal biotin via G4S linker)
T10 construct: also called Peptide G N-Term
T10 peptide: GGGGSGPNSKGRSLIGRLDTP

T11: Peptide G (rat PAR-2), C-terminal biotinylated (Rat (Rattus norvegicus), C-terminal biotin via G4S linker)
T11 construct: also called Peptide G C-Term
T11 peptide: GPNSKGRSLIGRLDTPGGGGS

B1: H4H591N (antibody, human IgG4, V domains shown)
VH: EVQLLESGGGLVQPGGSLRLSCATSGFTFSRYTMTWVRQAPGKGLFWVSGIGGSGGRAYYADSVKGRFTLSRDNSKNTLYLQMNSLRAEDTAVYYCAKEGDSGYDLDYWGRGTLVTVSS
VL: DIQMTQYPSSLSASVGDRVTITCRARQGISNYLAWLQQKPGKAPKSLIYAASSLQRGVPSKFSGSGSGTDFTLTISSLQPEDSATYYCQQYKISPLTFGGGTKVEIK
notes: also called H2M591N variable regions
B2: H4H618N (antibody, human IgG4, V domains shown)
VH: EVQLLESGGGLVQPGGSLRLSCAASGFTFRSYTMTWVRQAPGKGLDWVSGITDSGAGTYYGDSVKGRFTISRDNSKNTLYLQMNSLRAEDTAVYYCVKEGDSGYDLDYWGQGTLVTVSS
VL: B1 VL with Y7S, R26S, N31T, A51T, R56S, G66R, S83F, I93S
notes: also called H2M618N variable regions
B3: H2M610N (antibody, V domains shown)
VH: EVQLVESGGNLVQPGRSLRLSCAASGFTFDDYAMHWVRQAPGKGLEWVSGISWNSGSRGYADSVKGRFTISRDNAKNSLYLQMNSLRTEDTAFYYCTKEDEAFDYWGQGTLVTVSS
VL: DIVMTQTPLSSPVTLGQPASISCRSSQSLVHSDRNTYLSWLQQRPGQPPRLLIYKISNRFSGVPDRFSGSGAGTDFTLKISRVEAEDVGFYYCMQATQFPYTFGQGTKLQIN
notes: chimeric: human variable, mouse constant domains
B4: H4H578P (antibody, human IgG4, V domains shown)
VH: QVQLVESGGGVVQPGMSLRLSCAASGFTFRRYGMHWVRQAPGKGLEWVAVIWYDGSNKYYVDSVKGRFTISRDNSKNTLYLQMNSLRAEDTAVYYCASEITVGDWFDPWGQGTLVTVSS
VL: AIQMTQSPSSLSASVGDRVTITCRASQGIRNDLGWYQQKPGKAPKLLIYAASSLHSGVPSRFSGSGSGTDFTLTISSLQPEDFATYYCLQDFNYPLTFGGGTKVEIK
notes: also called H1H578P variable regions
B5: H4H580P (antibody, human IgG4, V domains shown)
VH: QVQLVESGGGVVQPGRSLRLSCVASGFTFSRYGMHWVRQAPGKGLEWVVVISYDGINKYYADSVKGRFTISRDNSKNTVYLQMNSLRAEDTAVYHCAKGDFWSGYFDYWGQGTLVTVSS
VL: DIVMTQTPLSSPVTLGQPASISCRSSQSLVHSDGNTYLSWLHQRPGQPPRLLIYKISNRFSGVPDRFSGSGAGTDFTLQISRVEAEDVGIYYCMQATQFPTFGGGTKVEIK
notes: also called H1H580P variable regions
B6: H4H573P (antibody, human IgG4, V domains shown)
VH: EVQLVESGGGLVQPGRSLRLSCAASGFTFDDYAMHWVRQGPGKGLEWVSGISWNGGSAGYADSVKGRFTISRDNAKNSLYLQLNSLRAEDTALYYCAKEDYAFDIWGQGTMVTVSS
VL: not shown
notes: also called H1H573P variable regions

Tests used:
full length human PAR-2 [1] = target: T12, full length human PAR-2 (human, UniProt P55085 26-397); test: cell-based or functional assay
T12 sequence (P55085 26-397 G138A limits assumed): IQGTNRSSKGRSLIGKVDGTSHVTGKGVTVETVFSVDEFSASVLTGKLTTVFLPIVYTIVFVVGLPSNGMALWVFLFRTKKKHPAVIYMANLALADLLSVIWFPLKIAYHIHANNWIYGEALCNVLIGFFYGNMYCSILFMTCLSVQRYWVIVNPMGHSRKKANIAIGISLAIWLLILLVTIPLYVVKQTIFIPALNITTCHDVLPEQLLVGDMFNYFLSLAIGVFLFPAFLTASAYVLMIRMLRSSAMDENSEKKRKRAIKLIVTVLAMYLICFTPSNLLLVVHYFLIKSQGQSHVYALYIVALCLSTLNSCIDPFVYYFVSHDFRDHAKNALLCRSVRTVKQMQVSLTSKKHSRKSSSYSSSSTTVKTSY

[2] = target: T13, Peptide F (monkey PAR-2), N-terminal biotinylated (Monkey (Macaca mulatta), N-terminal biotin via G4S linker); test: SPR, antibody captured
T13 construct: also called Peptide F N-Term
T13 sequence (peptide, as listed by the source): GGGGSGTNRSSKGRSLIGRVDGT
Protocol: (§1) Equilibrium dissociation constants (KD values) for antigen binding to selected purified PAR-2 antibodies were determined by surface kinetics using a real-time surface plasmon resonance biosensor assay. Antibody was captured on either a rabbit anti-mouse IgG polyclonal antibody (GE Healthcare, Piscataway, N.J.) surface or a goat anti-human IgG polyclonal antibody (Jackson Immuno Research Lab, West Grove, Pa.) surface created through direct amine chemical coupling to a BIACORE™ CM5 sensor chip to form a captured antibody surface. […] Antigen-antibody binding and dissociation were monitored in real time at room temperature. Kinetic analysis was performed to calculate KD and half-life of antigen/antibody complex dissociation (Table 10). For those antibodies where no T_{1/2} value is shown, steady state analysis was used to calculate the KD value. NB: no binding observed under current experimental conditions. ND: not determined.

full length human PAR-2 [3] = target: T12, full length human PAR-2; test: cell-based or functional assay; remark: listed apart in the source
[4] = target: T1, Peptide D (N-terminal domain of human …); test: peptide ELISA
[5] = target: T2, Peptide A (human PAR-2), N-terminal …; test: peptide ELISA titration
Protocol: (§2) Anti-PAR-2 antibodies were tested for their ability to bind to the PAR-2 peptides. Various PAR-2 Peptides (Table 3) were coated onto 96-well plates at a concentration of 2 μg/ml and incubated overnight followed by blocking in a suitable blocking agent for one hour. […] Purified anti-PAR-2 antibodies were added to the plate coated with PAR-2 peptides to a final concentration ranging from 0.2 to 2.0 μg/ml and incubated for one hour at room temperature. Detection of bound antibodies was determined with Horse-Radish Peroxidase (HRP) conjugated anti-mouse or human IgG (Jackson Immuno Research Lab, West Grove, Pa.) and developed by standard colorimetric response using tetramethylbenzidine (TMB) substrate. Absorbance was read at OD₄₅₀ for 0.1 second.
(§3) In another experiment, selected anti-PAR-2 antibodies cloned onto human IgG4 were tested for binding to unbiotinylated and biotinylated forms of PAR-2 peptides (Peptides A, E, F and G; as described above). […] Absorbance values at 450 nm were analyzed using a sigmoidal dose-response model in GraphPad Prism (GraphPad Software, Inc., La Jolla, Calif.) and EC₅₀ values were reported (Table 9). EC₅₀ values are defined as the antibody concentration required to achieve 50% maximal binding to PAR-2 peptide.

[6] = target: T13, Peptide F (monkey PAR-2), N-terminal …; test: peptide ELISA titration
Protocol: as §2, §3

[7] = target: T3, Peptide A (human PAR-2), unbiotinylated; test: peptide ELISA titration
Protocol: as §2, §3

[8] = target: T14, Peptide A (human PAR-2), C-terminal biotinylated (Human, C-terminal biotin via G4S linker); test: peptide ELISA titration
T14 construct: also called Peptide A C-Term
Protocol: as §2, §3

[9] = target: T4, Peptide B (human PAR-2), unbiotinylated; test: SPR, antibody captured; SPR at room temperature, monomeric peptide 15.6-250 nM injected over captured antibody
Protocol: as §1

[10] = target: T3, Peptide A (human PAR-2), unbiotinylated; test: SPR, antibody captured, steady state
Protocol: as §1

[11] = target: T5, Peptide C (human PAR-2), C-terminal …; test: peptide ELISA
Protocol: as §2

[12] = target: T6, Peptide C (human PAR-2), N-terminal …; test: peptide ELISA
Protocol: as §2

[13] = target: T2, Peptide A (human PAR-2), N-terminal …; test: peptide ELISA
Protocol: as §2

[14] = target: T3, Peptide A (human PAR-2), unbiotinylated; test: peptide ELISA
Protocol: as §2

[15] = target: T14, Peptide A (human PAR-2), C-terminal …; test: peptide ELISA
Protocol: as §2

[16] = target: T3, Peptide A (human PAR-2), unbiotinylated; test: SPR, antibody captured
Protocol: as §1

[17] = target: T7, Peptide E (mouse PAR-2), N-terminal …; test: peptide ELISA titration
Protocol: as §2, §3

[18] = target: T8, Peptide E (mouse PAR-2), unbiotinylated; test: peptide ELISA titration
Protocol: as §2, §3

[19] = target: T9, Peptide G (rat PAR-2), unbiotinylated; test: peptide ELISA titration
Protocol: as §2, §3

[20] = target: T10, Peptide G (rat PAR-2), N-terminal …; test: peptide ELISA titration
Protocol: as §2, §3

full length human PAR-2 [21] = target: T12, full length human PAR-2; test: MSD cell binding
Protocol: HEK293 cells were transfected with an NF-κB-luciferase-IRES-eGFP reporter plasmid. […] A clonal cell line, named D9, having low background levels of luciferase activity and high levels of eGFP when induced with IL-1β was made by a series of successive sorts of cell populations using flow cytometry. The 293/D9 cell line was then separately transfected with human PAR-2 or mouse PAR-2 to create the stable cell lines 293/D9/h PAR-2rec and 293/D9/m PAR-2rec, respectively.
Cells were plated on MSD high-bind 96 well plates at a density of 4×10⁴ cells/well in PBS and incubated for one hour at room temperature. Cells were then blocked in PBS with 2% BSA and incubated at room temperature for one hour. Anti-PAR-2 antibodies (ranging from 100 nM to 0.098 nM) were serially diluted two-fold in PBS with 0.5% BSA and incubated with the cells for one hour at room temperature followed by washing in PBS with 0.5% BSA. Sulfo-tagged anti-human IgG antibody (MSD) at a concentration of 0.1 μg/ml was then added to the cell/antibody mixture and incubated at room temperature for an additional hour. After another wash, a 1× non-surfactant containing read buffer was added and electro-chemiluminescent signal was read on the MSD Sector Imager. Signal of antibody binding to 293/D9 cells was subtracted from signal to 293/D9/hPAR-2rec or 293/D9/mPAR-2rec cells. Subtracted data were analyzed using a sigmoidal dose-response model in GraphPad Prism and EC₅₀ and Bₘₐₓ values were reported (Table 18). EC₅₀ values are defined as the antibody concentration required to achieve 50% maximal binding (Bₘₐₓ) to cells.

[22] = target: T11, Peptide G (rat PAR-2), C-terminal …; test: peptide ELISA titration
Protocol: as §2, §3

Row | Binder | IC50, NF-kB-luciferase, 10 nM Human Trypsin 1 (full length human PAR-2 [1]) [nM] | IC50, NF-kB-luciferase, 200 nM Factor Xa (full length human PAR-2 [1]) [nM] | IC50, NF-kB-luciferase, 750 nM Lung Tryptase (full length human PAR-2 [1]) [nM] | Kd [2] [nM] | T1/2 [2] [s] | IC50, NF-kB-luciferase, 20 nM Trypsin (full length human PAR-2 [3]) [nM] | binding result [4] | EC50 [5] [nM] | EC50 [6] [nM] | EC50 [7] [nM] | EC50 [8] [nM] | Kd [10] [nM] | Kd [16] [nM] | T1/2 [16] [s] | EC50 [17] [nM] | EC50 [18] [nM] | EC50 [19] [nM] | EC50 [20] [nM] | EC50 [22] [nM] | further results
1 | B1 | 105 | 74.6 | 62.9 | 8.54 | 1260 | 204 | binds | 0.022 | 0.011 | 0.01 | 0.016 |  |  |  |  |  |  |  |  | 
2 | B2 | 92.2 | 47.2 | 8.5 | 13.8 | 300 | 50.2 | binds | 0.021 | 0.011 | 0.009 | 0.016 |  |  |  |  |  |  |  |  | 
3 | B3 |  |  |  |  |  |  |  |  |  |  |  | 71.3 |  |  |  |  |  |  |  | Kd [9]: 360 nM; T1/2 [9]: 48 s; OD450 [11]: 0 to 0.09 od; OD450 [12]: 0 to 0.09 od; OD450 [13]: 1 to 4 od; OD450 [14]: 1 to 4 od; OD450 [15]: 1 to 4 od
4 | B4 |  |  |  |  |  |  |  | 0.062 | 0.036 | 0.034 | 0.04 |  | 245 | 10.2 | 0.09 | 2.78 | 0.046 | 0.081 |  | 
5 | B5 |  |  |  |  |  | 3.5 |  | 0.16 | 0.148 | 0.09 | 0.202 |  | 103 | 52.8 | 0.932 | 2.53 | 0.139 | 0.142 | 0.1 | Bmax (full length human PAR-2 [21]): 30200 MSD Unit; EC50 (full length human PAR-2 [21]): 8.69 nM
6 | B6 |  |  |  |  |  |  |  | 0.093 | 0.018 | 0.093 | 0.022 | 749 |  |  | 0.016 | 0.355 | 0.014 | 0.017 | 10.1 | 
